This experiment deals with GalNAc-glycosylated recombinant MUC2 fragment (UniProt Q02817). The experiment in a line: peptide or protein array.

For “GalNAc-T2 with a mutation in the α-lectin subdomain (GalNAc-T2^458H) (from UniProt Q10471 52-571) (enzyme)”, the percent of the total binding (of GalNAc-T2 to GalNAc-MUC2, with Mn2+ and UDP) was found to be 20%.

These data come from paper PMC3173194.
